Data: publication PMC12990809

Experiments:
Assay in all cases: pulldown
Conditions in all cases: 20 nM protein, 1.5 uM RNA pool; 20 mM HEPES pH 7.8, 70 mM KCl, 10 mM NaCl, 10% glycerol, 2 mM DTT, 0.1 ug/uL BSA; 30 min, 4 C
[1] = biological target: T1, PFE0865c (Plasmodium falciparum) (UniProt Q8I3T5)
T1 sequence: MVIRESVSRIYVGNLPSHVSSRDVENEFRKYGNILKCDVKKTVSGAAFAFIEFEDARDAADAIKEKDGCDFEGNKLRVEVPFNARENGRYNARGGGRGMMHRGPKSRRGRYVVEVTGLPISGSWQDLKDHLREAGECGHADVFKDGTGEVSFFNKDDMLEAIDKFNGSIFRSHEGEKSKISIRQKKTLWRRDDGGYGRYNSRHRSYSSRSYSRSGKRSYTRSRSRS

[2] = biological target: T2, rsp-1 (Caenorhabditis elegans) (UniProt Q23121)
T2 sequence: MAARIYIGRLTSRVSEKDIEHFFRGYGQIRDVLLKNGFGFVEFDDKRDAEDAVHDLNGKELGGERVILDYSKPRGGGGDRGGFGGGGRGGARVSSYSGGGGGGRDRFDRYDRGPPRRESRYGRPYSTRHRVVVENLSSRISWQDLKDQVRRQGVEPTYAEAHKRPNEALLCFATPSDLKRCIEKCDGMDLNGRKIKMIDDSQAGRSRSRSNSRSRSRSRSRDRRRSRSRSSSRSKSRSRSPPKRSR

ESRP1 (Homo sapiens) = biological target: T3, ESRP1 (Homo sapiens) (UniProt Q6NXG1)
T3 sequence: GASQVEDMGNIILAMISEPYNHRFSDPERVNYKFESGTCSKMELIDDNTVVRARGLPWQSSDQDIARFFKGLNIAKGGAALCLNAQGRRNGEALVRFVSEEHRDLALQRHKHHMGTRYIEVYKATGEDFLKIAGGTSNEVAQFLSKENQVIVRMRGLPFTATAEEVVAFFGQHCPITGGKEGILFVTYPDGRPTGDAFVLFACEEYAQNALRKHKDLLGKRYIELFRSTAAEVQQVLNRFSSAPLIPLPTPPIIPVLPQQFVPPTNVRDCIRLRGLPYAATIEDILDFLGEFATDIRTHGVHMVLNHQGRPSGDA

[3] = biological target: T4, RBFOX2 I153V (Homo sapiens) (UniProt O43251)
T4 sequence: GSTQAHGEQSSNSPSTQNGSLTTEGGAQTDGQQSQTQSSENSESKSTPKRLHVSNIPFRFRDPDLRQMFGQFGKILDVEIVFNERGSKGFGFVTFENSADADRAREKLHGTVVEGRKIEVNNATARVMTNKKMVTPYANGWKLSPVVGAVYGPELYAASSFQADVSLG

ELAVL2 (Homo sapiens) = ELAVL2 (Homo sapiens) (UniProt Q12926)
Sequence of ELAVL2 (Homo sapiens) (Q12926 1-189): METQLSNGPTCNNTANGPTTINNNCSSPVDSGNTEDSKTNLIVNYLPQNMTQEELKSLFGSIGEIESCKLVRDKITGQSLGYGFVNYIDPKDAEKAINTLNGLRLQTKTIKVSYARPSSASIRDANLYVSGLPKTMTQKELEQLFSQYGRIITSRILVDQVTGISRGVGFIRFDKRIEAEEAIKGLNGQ

[4] = biological target: T5, PK21151.1 (Cannabis sativa) (UniProt A0A7J6F7E6)
T5 sequence: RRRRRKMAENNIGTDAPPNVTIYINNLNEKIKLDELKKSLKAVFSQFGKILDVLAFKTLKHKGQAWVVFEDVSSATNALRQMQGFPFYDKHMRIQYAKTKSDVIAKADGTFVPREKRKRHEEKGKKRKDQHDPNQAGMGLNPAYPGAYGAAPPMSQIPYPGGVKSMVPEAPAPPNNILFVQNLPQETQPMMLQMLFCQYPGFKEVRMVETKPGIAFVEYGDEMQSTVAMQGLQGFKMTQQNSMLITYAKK

[5] = biological target: T6, U2B'' (Arabidopsis thaliana) (UniProt O22922)
T6 sequence: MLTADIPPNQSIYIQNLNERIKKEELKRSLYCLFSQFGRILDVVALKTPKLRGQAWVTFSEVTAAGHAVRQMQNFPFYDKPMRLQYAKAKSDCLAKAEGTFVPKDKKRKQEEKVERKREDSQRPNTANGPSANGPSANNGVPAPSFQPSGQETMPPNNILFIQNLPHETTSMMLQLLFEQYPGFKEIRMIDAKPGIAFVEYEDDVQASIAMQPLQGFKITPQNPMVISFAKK

[6] = biological target: T7, cpb-2 (Caenorhabditis elegans) (UniProt Q18317)
T7 sequence: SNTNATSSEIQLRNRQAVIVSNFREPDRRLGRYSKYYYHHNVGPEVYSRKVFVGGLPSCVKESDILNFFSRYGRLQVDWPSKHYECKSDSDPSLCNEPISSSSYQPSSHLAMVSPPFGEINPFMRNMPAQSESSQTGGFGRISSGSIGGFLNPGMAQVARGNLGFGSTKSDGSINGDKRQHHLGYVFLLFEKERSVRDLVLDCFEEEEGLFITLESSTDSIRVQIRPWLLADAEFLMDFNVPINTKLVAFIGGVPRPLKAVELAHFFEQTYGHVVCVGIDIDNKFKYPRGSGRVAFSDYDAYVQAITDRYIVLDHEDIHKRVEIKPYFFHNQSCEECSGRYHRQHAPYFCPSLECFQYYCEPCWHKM

PUF60 (Homo sapiens) = biological target: T8, PUF60 (Homo sapiens) (UniProt Q9UHX1)
T8 sequence: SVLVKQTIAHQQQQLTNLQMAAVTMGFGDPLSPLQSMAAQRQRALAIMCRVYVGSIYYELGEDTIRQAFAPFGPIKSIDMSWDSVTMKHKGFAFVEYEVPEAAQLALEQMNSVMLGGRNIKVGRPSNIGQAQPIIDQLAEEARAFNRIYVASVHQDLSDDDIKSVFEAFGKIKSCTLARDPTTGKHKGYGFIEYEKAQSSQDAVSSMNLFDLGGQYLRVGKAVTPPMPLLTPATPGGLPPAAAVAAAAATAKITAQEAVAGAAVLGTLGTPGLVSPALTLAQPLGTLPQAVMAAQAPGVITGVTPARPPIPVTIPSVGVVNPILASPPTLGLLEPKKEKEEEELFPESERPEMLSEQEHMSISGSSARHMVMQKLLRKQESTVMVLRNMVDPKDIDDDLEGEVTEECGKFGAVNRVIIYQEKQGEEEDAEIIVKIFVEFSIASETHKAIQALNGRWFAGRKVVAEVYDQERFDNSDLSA

GAUGAAC [RNAcompete motif RNCMPT00800]
binding signal (z-score (mean of top ten 7-mers)) [1]: 6.53

GGAGGAG [RNAcompete motif RNCMPT00801]
binding signal (z-score (mean of top ten 7-mers)) [2]: 9.02

GGAUGGGG [RNAcompete motif RNCMPT00808]
binding signal (z-score (mean of top ten 7-mers)) (ESRP1 (Homo sapiens)): 6.61

UGCAUG [RNAcompete motif RNCMPT00818]
binding signal (z-score (mean of top ten 7-mers)) [3]: 26.3

UUAUUUU [RNAcompete motif RNCMPT00814]
binding signal (z-score (mean of top ten 7-mers)) (ELAVL2 (Homo sapiens)): 15.1

UUGCACA [RNAcompete motif RNCMPT00830]
binding signal (z-score (mean of top ten 7-mers)) [4]: 12.4

UUGCACA [RNAcompete motif RNCMPT01660]
binding signal (z-score (mean of top ten 7-mers)) [5]: 14.2

UUUNUA [RNAcompete motif RNCMPT00794]
binding signal (z-score (mean of top ten 7-mers)) [6]: 14.9

UUUUUUU [RNAcompete motif RNCMPT00820]
binding signal (z-score (mean of top ten 7-mers)) (PUF60 (Homo sapiens)): 12
